Results: CN115594758A (NANJING JINGZHUN BIOTECHNOLOGY CO LTD, dated 2023)

Molecular target: SARS-CoV-2假病毒 (病毒包膜糖蛋白 on MLV pseudovirus) (SARS-CoV-2, UniProt P0DTC2 14-1273)
Assay: cell-based or functional assay

B1: 纳米抗体SA4 (VHH)
VHH: QVQLQESGGGLVQPGGSLRLSCAASGSFFEFGTVGWFRQAPGKQRELVSRITGNDHRYYADSVKGRFTISRDNDETTVYLQMDSLKPEDTAIYHCNILEGQRWSNYWGQGTQVTVSH
B1 was tested, and the “假病毒中和实验 IC50 (GFP by flow cytometry, VeroE6-hACE2 cells)” value was 12.7 nM.
